Literature values in patent US20230210827A1, “METHODS AND COMPOSITIONS FOR TREATING ANEMIA USING ACTRIIB LIGAND TRAPS AND MTOR INHIBITORS” (Celgene Corporation, priority 2020, published 2023).

T1: GDF-11 (Homo sapiens, UniProt O95390)
T1 sequence (O95390 299-407): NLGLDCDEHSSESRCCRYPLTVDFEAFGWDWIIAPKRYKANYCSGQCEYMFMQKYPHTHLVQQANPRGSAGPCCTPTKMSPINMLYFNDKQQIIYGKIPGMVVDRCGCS


Assays:
GDF-11 = molecular target: T1, GDF-11; details: ActRIIB variants; background statements
activin = details: ActRIIB variants; background statements

Molecule | affinity for / binding to GDF-11 (GDF-11) | affinity for / binding to activin (activin)
L79A: ActRIIB extracellular domain polypeptide with L79A mutation (protein, UniProt Q13705 19-137, looked up, variant L79A, extracellular domain, ActRIIB extracellular domain polypeptide with L79A mutation) extracellular domain: SGRGEAETRECIYYNANWELERTNQSGLERCEGEQDKRLHCYASWRNSSGTIELVKKGCWADDFNCYDRQECVATEENPQVYFCCCEGNFCNERFTHLPEAGGPEVTYEPPPTAPTLLT | reduce GDF-11 binding to a greater extent than activin binding | –
L79P: ActRIIB extracellular domain polypeptide with L79P mutation (protein, UniProt Q13705 19-137, looked up, variant L79P, extracellular domain, ActRIIB extracellular domain polypeptide with L79P mutation) extracellular domain: SGRGEAETRECIYYNANWELERTNQSGLERCEGEQDKRLHCYASWRNSSGTIELVKKGCWPDDFNCYDRQECVATEENPQVYFCCCEGNFCNERFTHLPEAGGPEVTYEPPPTAPTLLT | reduce GDF-11 binding to a greater extent than activin binding | –
A64: Fc fusion protein having ActRIIB extracellular sequence with alanine at position 64 of SEQ ID NO:2 (protein, fusion protein comprising a soluble extracellular domain of ActRIIB (A64; SEQ ID NO 3) fused to an Fc domain) SGRGEAETRECIYYNANWELERTNQSGLERCEGEQDKRLHCYASWANSSGTIELVKKGCWLDDFNCYDRQECVATEENPQVYFCCCEGNFCNERFTHLPEAGGPEVTYEPPPTAPTGGGTHTCPPCPAPELLGGPSVFLFPPKPKDTLMISRTPEVTCVVVDVSHEDPEVKFNWYVDGVEVHNAKTKPREEQYNSTYRVVSVLTVLHQDWLNGKEYKCKVSNKALPVPIEKTISKAKGQPREPQVYTLPPSREEMTKNQVSLTCLVKGFYPSDIAVEWESNGQPENNYKTTPPVLDSDGSFFLYSKLTVDKSRWQQGNVFSCSVMHEALHNHYTQKSLSLSPGK | relatively low affinity | relatively low affinity
R64: Fc fusion protein with an arginine at position 64 of the ActRIIB precursor amino acid sequence (protein, fusion protein comprising a soluble extracellular domain of ActRIIB (R64; SEQ ID NO15) fused to an Fc domain) SGRGEAETRECIYYNANWELERTNQSGLERCEGEQDKRLHCYASWRNSSGTIELVKKGCWLDDFNCYDRQECVATEENPQVYFCCCEGNFCNERFTHLPEAGGPEVTYEPPPTAPTGGGTHTCPPCPAPELLGGPSVFLFPPKPKDTLMISRTPEVTCVVVDVSHEDPEVKFNWYVDGVEVHNAKTKPREEQYNSTYRVVSVLTVLHQDWLNGKEYKCKVSNKALPVPIEKTISKAKGQPREPQVYTLPPSREEMTKNQVSLTCLVKGFYPSDIAVEWESNGQPENNYKTTPPVLDSDGSFFLYSKLTVDKSRWQQGNVFSCSVMHEALHNHYTQKSLSLSPGK | low nanomolar to high picomolar range | low nanomolar to high picomolar range

More lines, now with the values ahead:

affinity for / binding to GDF-11 (GDF-11) | affinity for / binding to activin (activin) | Molecule
retain GDF-11 binding | greatly reduced activin binding | L79E: ActRIIB extracellular domain polypeptide with L79E mutation (protein, UniProt Q13705 19-137, looked up, variant L79E, extracellular domain, ActRIIB extracellular domain polypeptide with L79E mutation) extracellular domain: SGRGEAETRECIYYNANWELERTNQSGLERCEGEQDKRLHCYASWRNSSGTIELVKKGCWEDDFNCYDRQECVATEENPQVYFCCCEGNFCNERFTHLPEAGGPEVTYEPPPTAPTLLT
reduced binding to GDF-11 and activin | reduced binding to GDF-11 and activin | ActRIIB(20-119)-Fc: ActRIIB-Fc fusion protein containing amino acids 20-119 of SEQ ID NO:14 (SEQ ID NO:18) (protein, human ActRIIB soluble (extracellular), processed polypeptide sequence with the C-terminal 15 aa deleted (aa 20-119 of SEQ ID NO14)) GRGEAETRECIYYNANWELERTNQSGLERCEGEQDKRLHCYASWRNSSGTIELVKKGCWLDDFNCYDRQECVATEENPQVYFCCCEGNFCNERFTHLPEA
retain GDF-11 binding | greatly reduced activin binding | L79D: ActRIIB extracellular domain polypeptide with L79D mutation (protein, listed as Homo sapiens, human ActRIIB precursor protein sequence (A64), ActRIIB extracellular domain polypeptide with L79D mutation) MTAPWVALALLWGSLWPGSGRGEAETRECIYYNANWELERTNQSGLERCEGEQDKRLHCYASWANSSGTIELVKKGCWDDDFNCYDRQECVATEENPQVYFCCCEGNFCNERFTHLPEAGGPEVTYEPPPTAPTLLTVLAYSLLPIGGLSLIVLLAFWMYRHRKPPYGHVDIHEDPGPPPPSPLVGLKPLQLLEIKARGRFGCVWKAQLMNDFVAVKIFPLQDKQSWQSEREIFSTPGMKHENLLQFIAAEKRGSNLEVELWLITAFHDKGSLTDYLKGNIITWNELCHVAETMSRGLSYLHEDVPWCRGEGHKPSIAHRDFKSKNVLLKSDLTAVLADFGLAVRFEPGKPPGDTHGQVGTRRYMAPEVLEGAINFQRDAFLRIDMYAMGLVLWELVSRCKAADGPVDEYMLPFEEEIGQHPSLEELQEVVVHKKMRPTIKDHWLKHPGLAQLCVTIEECWDHDAEARLSAGCVEERVSLIRRSVNGTTSDCLVSLVTSVTNVDLPPKESSI
